Reference: paper PMC4029802, “PKCε Promotes HuD-Mediated Neprilysin mRNA Stability and Enhances Neprilysin-Induced Aβ Degradation in Brain Neurons”

Target: HuD (UniProt P26378 1-385)
Test: EMSA; 2 uM HuD, 125 nM probe; complex specificity confirmed with unlabeled competitor oligoriboprobe; 10 mM HEPES pH 7.3, 20 mM KCl, 1 mM MgCl2, 1 mM DTT, 5% glycerol, 2 ug/ml tRNA, 30 min, room temperature; 6% native PAGE, 0.5X TBE
Conditions: protein: commercial; label: 3'-biotin

HuD, sequence (P26378 whole entry): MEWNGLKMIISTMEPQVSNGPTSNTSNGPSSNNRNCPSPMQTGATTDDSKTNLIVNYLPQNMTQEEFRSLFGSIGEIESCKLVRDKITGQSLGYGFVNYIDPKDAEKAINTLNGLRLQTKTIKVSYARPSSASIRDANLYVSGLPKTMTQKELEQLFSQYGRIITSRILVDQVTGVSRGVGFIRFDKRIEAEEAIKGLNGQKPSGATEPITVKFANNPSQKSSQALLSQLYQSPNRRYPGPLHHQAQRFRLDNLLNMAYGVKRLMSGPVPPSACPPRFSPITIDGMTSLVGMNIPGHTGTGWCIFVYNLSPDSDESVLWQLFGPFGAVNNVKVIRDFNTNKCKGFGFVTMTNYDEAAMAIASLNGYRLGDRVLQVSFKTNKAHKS

B1: NEP mRNA 3'-UTR ARE oligoribonucleotide (ssRNA)
RNA: UUCUGUGAUCAUUUAUUUUAAGCACUC
  binding result: binds
